The values below come from patent US20110300138A1 (published 2011).

Common to all, as to experiment: cell-based or functional assay
The target in experiment [1] is human TSH receptor (full length, wild type) expressed on CHO cells (human) (UniProt P16473).
The target of experiment [2] is TSHR with Lys250 mutated to Ala (expressed in CHO cells) (human) (UniProt P16473).
Experiment [3] deals with wild type TSHR expressed in CHO cells (human) (UniProt P16473).
For experiment [4] the target is unchanged. The source holds these as a separate data set.
Experiment [5] concerns the target human TSHR with Glu251 mutated to Ala expressed in CHO cells (human) (UniProt P16473).
Experiment [6] addresses human TSH receptor (full length, wild type) expressed in CHO cells (human) (UniProt P16473).

In experiment [1], “native human TSH (from UniProt P01215 25-116; P01222 21-132) (ligand)” had a Cyclic AMP concentration in hypotonic medium; 100 ng/mL hTSH alone of 56.8 pmol/mL and a Cyclic AMP concentration in isotonic medium; 100 ng/mL hTSH alone of 42.3 pmol/mL.
On to “5B3 IgG (human monoclonal antibody to GAD, negative control for K1-70)”, for which, in experiment [2], the % inhibition of TSH stimulation; 5B3 10 µg/mL; Experiment 1 came out at 0%, the % inhibition of TSH stimulation; 5B3 10 µg/mL; Experiment 2 worked out at 14%, the % inhibition of TSH stimulation; 5B3 100 µg/mL; Experiment 1 stood at 0% and the % inhibition of TSH stimulation; 5B3 100 µg/mL; Experiment 2 was 1%. In addition, in experiment [2], the Cyclic AMP produced; 5B3 10 µg/mL + TSH 3 ng/mL; Experiment 1 is 67.7 pmol/mL, the Cyclic AMP produced; 5B3 10 µg/mL + TSH 3 ng/mL; Experiment 2 amounted to 47.1 pmol/mL, the Cyclic AMP produced; 5B3 100 µg/mL + TSH 3 ng/mL; Experiment 1 stood at 66.1 pmol/mL and the Cyclic AMP produced; 5B3 100 µg/mL + TSH 3 ng/mL; Experiment 2 was determined as 54.7 pmol/mL. For the same substance, in experiment [2], the Mutated/wild type (%) of cyclic AMP produced; 5B3 10 µg/mL + TSH 3 ng/mL; Experiment 1 stood at 87%, the Mutated/wild type (%) of cyclic AMP produced; 5B3 10 µg/mL + TSH 3 ng/mL; Experiment 2 amounted to 52%, the Mutated/wild type (%) of cyclic AMP produced; 5B3 100 µg/mL + TSH 3 ng/mL; Experiment 1 was 83% and the Mutated/wild type (%) of cyclic AMP produced; 5B3 100 µg/mL + TSH 3 ng/mL; Experiment 2 worked out at 62%. Also, in experiment [3], the % inhibition of TSH stimulation; 5B3 10 µg/mL; Experiment 1 was 0.1%, the % inhibition of TSH stimulation; 5B3 10 µg/mL; Experiment 2 was 0%, the % inhibition of TSH stimulation; 5B3 100 µg/mL; Experiment 1 is 0% and the % inhibition of TSH stimulation; 5B3 100 µg/mL; Experiment 2 is 0%. In addition, in experiment [3], the Cyclic AMP produced; 5B3 10 µg/mL + TSH 3 ng/mL; Experiment 1 was found to be 77.8 pmol/mL, the Cyclic AMP produced; 5B3 10 µg/mL + TSH 3 ng/mL; Experiment 2 is 90.6 pmol/mL, the Cyclic AMP produced; 5B3 100 µg/mL + TSH 3 ng/mL; Experiment 1 came to 79.9 pmol/mL and the Cyclic AMP produced; 5B3 100 µg/mL + TSH 3 ng/mL; Experiment 2 was 87.5 pmol/mL. Moreover, in experiment [4], the % inhibition of TSH stimulation; 5B3 10 µg/mL was found to be 5%, the % inhibition of TSH stimulation; 5B3 100 µg/mL came out at 11%, the Cyclic AMP produced; 5B3 10 µg/mL + TSH 3 ng/mL came out at 92.9 pmol/mL and the Cyclic AMP produced; 5B3 100 µg/mL + TSH 3 ng/mL was found to be 86.3 pmol/mL. In experiment [5], the % inhibition of TSH stimulation; 5B3 10 µg/mL was determined as 10%, the % inhibition of TSH stimulation; 5B3 100 µg/mL was found to be 0%, the Cyclic AMP produced; 5B3 10 µg/mL + TSH 3 ng/mL was determined as 68.7 pmol/mL and the Cyclic AMP produced; 5B3 100 µg/mL + TSH 3 ng/mL turned out to be 76.7 pmol/mL. Besides, in experiment [5], the Mutated/wild type (%) of cyclic AMP produced; 5B3 10 µg/mL + TSH 3 ng/mL came out at 74% and the Mutated/wild type (%) of cyclic AMP produced; 5B3 100 µg/mL + TSH 3 ng/mL was found to be 89%.
As to “recombinant human TSH (from UniProt P01215 25-116; P01222 21-138) (ligand)”, in experiment [1], the Cyclic AMP concentration in hypotonic medium; 100 ng/mL rhTSH alone amounted to 37.8 pmol/mL and the Cyclic AMP concentration in isotonic medium; 100 ng/mL rhTSH alone is 29.9 pmol/mL.
On to “NIBSC reference preparation 90/672 (Thyroid Stimulating Autoantibody reference preparation)”, for which, in experiment [6], the Cyclic AMP concentration at 0.1 units/L NIBSC 90/672 was 5 pmol/mL, the Cyclic AMP concentration at 0.3 units/L NIBSC 90/672 is 12.5 pmol/mL and the Cyclic AMP concentration at 1 unit/L NIBSC 90/672 was 27.4 pmol/mL.
